These results are taken from patent publication US20200317768A1 (published 2020).

Residue numbers refer to the chain shown, from its start. Names may count otherwise.

Assay [1] has as its target T1, cynomolgus monkey FcγRIIa1 extracellular domain with C-terminal His-tag (cynomolgus monkey).
T1 construct: Expressed in FreeStyle 293 cells and purified; also called cyno FcγRIIa1; cynoFcgRIIa1; not shown: C-terminal His-tag
T1 chain: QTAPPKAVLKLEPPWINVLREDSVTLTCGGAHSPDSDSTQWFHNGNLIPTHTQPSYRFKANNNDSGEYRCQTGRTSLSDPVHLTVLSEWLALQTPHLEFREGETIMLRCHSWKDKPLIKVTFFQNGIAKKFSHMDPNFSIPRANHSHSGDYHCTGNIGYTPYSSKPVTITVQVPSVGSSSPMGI
Kind of assay: SPR (Biacore); KD of SG1 divided by KD of the variant for this FcgR.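 Note: relative to parent M103205H795-SG1 carrying the SG1 human heavy chain constant region.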 How it is done:
(§1) The kinetic analysis of interactions between these antibodies and FcγR was carried out using BIACORE® T200 or BIACORE® 4000 (GE Healthcare). HBS-EP+ (GE Healthcare) was used as the running buffer, and the measurement temperature was set to 25° C. A chip produced by immobilizing Protein A. Protein A/G or mouse anti-human IgG kappa light chain (BD Biosciences) onto a Series S Sensor Chip CM4 or CM5 (GE Healthcare) by the amine-coupling method was used. […] After the measurement, the antibody captured on the chip was washed off by allowing reaction with 10 mM glycine-HCl, pH1.5 and 25 mM NaOH so that the chip was regenerated and used repeatedly. The sensorgrams obtained as measurement results were analyzed by the 1:1 Langmuir binding model using the BIACORE® Evaluation Software to calculate the binding rate constant ka (L/mol/s) and dissociation rate constant kd (l/s), and the dissociation constant KD (mol/L) was calculated from these values. […] Regarding such interactions, KD values were calculated using the following 1:1 binding model described in BIACORE® T100 Software Handbook BR1006-48 Edition AE.
(§2) The resultant variants were expressed using M103202L889-SK1 as light chain and their affinity to human and cynoFcγRs were evaluated (Table 20).

In assay [2] the target is T2, human FcγRIIb extracellular domain with C-terminal His-tag (human, UniProt P31994 43-217).
T2 construct: Expressed in FreeStyle 293 cells and purified; also called humanFcgRIIb; not shown: C-terminal His-tag
T2 sequence: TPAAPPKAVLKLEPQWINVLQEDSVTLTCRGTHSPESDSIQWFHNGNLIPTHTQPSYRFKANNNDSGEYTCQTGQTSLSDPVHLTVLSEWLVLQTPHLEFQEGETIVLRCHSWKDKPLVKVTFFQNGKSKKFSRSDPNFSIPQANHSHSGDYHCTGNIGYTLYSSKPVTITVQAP
The description is as above. How it is done:
as §1, §2

The target of assay [3] is T3, cynomolgus monkey FcγRIIa1 extracellular domain, His-tagged (cynomolgus monkey).
T3 construct: also called cyno FcgRIIa1; cynoFcγRIIa1; not shown: His-tag added to the C-terminus
T3 chain: T1 chain
In words: SPR (BIACORE), antibody captured, FcγR as analyte, 25°C. The protocol:
as §1
(§3) The behavior of interacting molecules according to the 1:1 binding model on BIACORE® can be described by Equation 1: Req=C·R max/(KD+C)+RI, wherein, Req is a plot of steady-state binding levels to analyte concentration. C is concentration, RI is bulk refractive index contribution in the sample, and Rmax is analyte binding capacity of the surface. When this equation is rearranged, KD can be expressed as Equation 2: KD=C·Rmax/(Req−RI)−C. KD can be calculated by substituting the values of Rmax, RI, and C into Equation 1 or Equation 2. From the current measurement conditions, RI=0, C=2 μmol/L can be used.
On the technique in general: Surface plasmon resonance follows binding to a sensor surface in real time, without labels.

Assay [4] has as its target T4, cynomolgus monkey FcγRIIa2 extracellular domain, His-tagged (cynomolgus monkey).
T4 construct: also called cyno FcgRIIa2; cynoFcγRIIa2; not shown: His-tag added to the C-terminus
T4 chain: T1 chain with P95T, T121A, I127K, A128S, K130N, D135N, R142Q
The description is as above. The protocol:
as §1, §3

Assay [5] concerns the target T5, cynomolgus monkey FcγRIIa3 extracellular domain, His-tagged (cynomolgus monkey).
T5 construct: also called cyno FcgRIIa3; cynoFcγRIIa3; not shown: His-tag added to the C-terminus
T5 chain: T1 chain with P95T, T121A, A128S, H133P, D135N
The assay is described as above. How it is done:
as §1, §3

Assay [6] concerns the target T6, cynomolgus monkey FcγRIIb extracellular domain, His-tagged (cynomolgus monkey).
T6 construct: also called cyno FcgRIIb; cynoFcγRIIb; not shown: His-tag added to the C-terminus
T6 chain: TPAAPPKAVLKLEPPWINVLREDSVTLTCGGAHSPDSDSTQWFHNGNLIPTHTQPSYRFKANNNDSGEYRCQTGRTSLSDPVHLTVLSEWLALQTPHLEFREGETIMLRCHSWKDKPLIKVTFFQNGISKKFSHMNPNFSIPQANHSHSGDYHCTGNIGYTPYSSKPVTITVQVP
The description is as above. The protocol:
as §1, §3

Assay [7] addresses T7, cynomolgus monkey FcγRIIIaS extracellular domain, His-tagged (cynomolgus monkey, UniProt A3RFZ7 21-206 (rhesus entry)).
T7 construct: also called cyno FcgRIIIaS; cynoFcγRIIIaS; not shown: His-tag added to the C-terminus
Described as above. The protocol: as §1, §3

Assay [8] deals with T8, human FcγRIIb extracellular domain, His-tagged (human, UniProt P31994 43-217).
T8 construct: also called human FcgRIIb; not shown: His-tag added to the C-terminus
T8 sequence: T2 sequence
The assay is described as above. How it is done: as §1, §3

In assay [9] the target is T9, human FcγRIIIaV extracellular domain, His-tagged (human, UniProt P08637 17-208).
T9 construct: also called human FcgRIIIaV; not shown: His-tag added to the C-terminus
T9 sequence (P08637 17-208 F176V): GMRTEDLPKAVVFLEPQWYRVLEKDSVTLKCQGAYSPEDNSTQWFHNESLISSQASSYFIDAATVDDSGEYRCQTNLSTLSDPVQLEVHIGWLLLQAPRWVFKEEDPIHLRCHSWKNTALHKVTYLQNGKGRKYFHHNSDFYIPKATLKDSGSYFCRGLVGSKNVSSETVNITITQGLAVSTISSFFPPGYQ
Described as above. The protocol: as §1, §3

B1: MS_M103205H795-SG1/M103202L889-SK1 (antibody, human IgG1, kappa)
heavy: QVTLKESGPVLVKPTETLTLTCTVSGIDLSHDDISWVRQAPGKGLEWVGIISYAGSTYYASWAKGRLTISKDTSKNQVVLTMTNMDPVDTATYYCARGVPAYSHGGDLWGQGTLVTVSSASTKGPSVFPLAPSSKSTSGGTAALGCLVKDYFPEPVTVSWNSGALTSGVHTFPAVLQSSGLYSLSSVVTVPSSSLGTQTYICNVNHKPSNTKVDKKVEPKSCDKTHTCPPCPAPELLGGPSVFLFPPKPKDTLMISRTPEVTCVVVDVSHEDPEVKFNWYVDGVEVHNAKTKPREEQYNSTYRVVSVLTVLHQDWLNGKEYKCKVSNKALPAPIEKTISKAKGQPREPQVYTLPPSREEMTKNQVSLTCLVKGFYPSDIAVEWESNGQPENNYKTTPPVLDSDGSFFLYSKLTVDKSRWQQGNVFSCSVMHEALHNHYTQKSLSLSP
light: DIVMTQSPATLSLSPGERATLSCTSSQSVYHANWLSWFQQKPGQPPKLLIYWASTLAYGVPSRFSGSGSGTDFTLTISSLQPEDAATYYCAGGYGGGRYAFGQGTKVEIKRTVAAPSVFIFPPSDEQLKSGTASVVCLLNNFYPREAKVQWKVDNALQSGNSQESVTEQDSKDSTYSLSSTLTLSKADYEKHKVYACEVTHQGLSSPVTKSFNRGEC
notes: Anti-latent myostatin IgG; also called MS1032LO06-SG1
Take B1: the “KD fold (SG1 = 1)” value in assay [1] and in assay [2] was 1 fold in each case.

B2: MS1032LO06-SG1 (M103205H795-SG1/M103202L889-SK1) (antibody, human IgG1, kappa)
heavy: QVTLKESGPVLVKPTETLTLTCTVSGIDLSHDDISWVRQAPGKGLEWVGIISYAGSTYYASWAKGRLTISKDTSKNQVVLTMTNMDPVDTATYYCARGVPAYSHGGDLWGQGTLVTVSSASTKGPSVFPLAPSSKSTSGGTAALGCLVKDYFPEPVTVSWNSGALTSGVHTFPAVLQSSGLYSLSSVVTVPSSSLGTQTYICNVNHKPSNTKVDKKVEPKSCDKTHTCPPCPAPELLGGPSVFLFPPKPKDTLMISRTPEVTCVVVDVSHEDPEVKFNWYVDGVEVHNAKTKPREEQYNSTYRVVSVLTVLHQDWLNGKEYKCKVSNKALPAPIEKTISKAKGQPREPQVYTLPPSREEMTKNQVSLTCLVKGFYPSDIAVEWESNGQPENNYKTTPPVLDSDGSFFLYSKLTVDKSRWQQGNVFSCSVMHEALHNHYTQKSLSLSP
light: B1 light
notes: Anti-latent myostatin antibody; Parent of the Fc variants; copies: 2 + 2
Broadly, the Kd is a measure of binding affinity in units of concentration. For the molecule B2, the Kd in [3] turned out to be 3.2 µM; in assay [4], 5.1 µM; in assay [5], 17 µM; in assay [6], 1.8 µM; in assay [7], 0.36 µM; in assay [8], 4.6 µM. In addition, the Kd in assay [9] came to 0.81 µM.

B3: M103205H795-MY263/M103202L889-SK1 (antibody, human IgG1, kappa)
heavy: QVTLKESGPVLVKPTETLTLTCTVSGIDLSHDDISWVRQAPGKGLEWVGIISYAGSTYYASWAKGRLTISKDTSKNQVVLTMTNMDPVDTATYYCARGVPAYSHGGDLWGQGTLVTVSSASTKGPSVFPLAPSSKSTSGGTAALGCLVKDYFPEPVTVSWNSGALTSGVHTFPAVLQSSGLYSLSSVVTVPSSSLGTQTYICNVNHKPSNTKVDKKVEPKSCDKTHTCPPCPAPELLQGPSVFLFPPKPKDTLMISRTPEVTCVVVDVSDEDPEVKFNWYVDGVEVHNAKTKPREEQYNSTYRVVSVLTVLHQDWLNGKEYKCKVSNKALPKPIEKTISKAKGQPREPQVYTLPPSREEMTKNQVSLTCLVKGFYPSDIAVEWESNGQPENNYKTTPPVLDSDGSFFLYSKLTVDKSRWQQGNVFSCSVMHEALHNHYTQKSLSLSP
light: B1 light
notes: copies: 2 + 2
Regarding B3, the Kd in assay [3] was 3.2 µM; in assay [4], 3 µM; in [5], 7.3 µM; in [6], 1 µM; in [7], 0.78 µM; in [8] it was 3.5 µM. The molecule also showed a Kd in assay [9] of 2.3 µM.

B4: M103205H795-MY260/M103202L889-SK1 (antibody, human IgG1, kappa)
heavy: B3 heavy with Q238M
light: B1 light
notes: copies: 2 + 2
As to B4, the Kd in assay [3] is 4.5 µM; in [4], 3.7 µM; in [5], 14 µM; in assay [6] it was 1.6 µM; in [7], 0.65 µM; in assay [8], 6.1 µM. For the same molecule, in assay [9], the Kd was 3 µM.

B5: M103205H795-MY052 / M103202L889-SK1 (antibody, human IgG1, kappa)
heavy: B3 heavy with Q238N, D270E, K332A, P398M
light: B1 light
notes: Fc variant of M103205H795-SG1, expressed with M103202L889-SK1 as light chain; parent of the position 396 variants
With B5, the “KD fold (SG1 = 1)” value was 2.3 fold in assay [1] and 6.4 fold in assay [2].

B6: M103205H795-MY169 / M103202L889-SK1 (antibody, human IgG1, kappa)
heavy: B3 heavy with Q238N, D270E, K332A, P398D
light: B1 light
notes: Position 396 variant derived from MY052, expressed with M103202L889-SK1 as light chain
As to B6, the “KD fold (SG1 = 1)” value was determined as 1.4 fold in [1] and 3.5 fold in assay [2].

B7: M103205H795-MY170 / M103202L889-SK1 (antibody, human IgG1, kappa)
heavy: B3 heavy with Q238N, D270E, K332A, P398E
light: B1 light
notes: as for B6
For the molecule B7, the results for the “KD fold (SG1 = 1)” value in [1] and in assay [2] were 1.4 fold and 2.9 fold, respectively.

B8: M103205H795-MY261/M103202L889-SK1 (antibody, human IgG1, kappa)
heavy: B3 heavy with Q238H
light: B1 light
notes: copies: 2 + 2
For the molecule B8, the Kd was 3.7 µM in assay [3]; 4 µM in assay [4]; 6.5 µM in [5]; 1.5 µM in assay [6]; 0.074 µM in assay [7]; 5.3 µM in assay [8]. The molecule further came in with a Kd in assay [9] of 11 µM.

B9: M103205H795-MY168 / M103202L889-SK1 (antibody, human IgG1, kappa)
heavy: B3 heavy with Q238N, D270E, K332A, P398A
light: B1 light
notes: as for B6
As for B9, the results for the “KD fold (SG1 = 1)” value in [1] and in assay [2] were 1.5 fold and 2.7 fold, respectively.

B10: M103205H795-MY201/M103202L889-SK1 (antibody, human IgG1, kappa)
heavy: B3 heavy with Q238N
light: B1 light
notes: Fc variant G236N/H268D/A330K (EU numbering) of SG1; also called MS1032LO06-MY201; copies: 2 + 2
Take B10: the Kd turned out to be 1.4 µM in [3]; 1.4 µM in assay [4]; 3.9 µM in [5]; 0.43 µM in assay [6]; 5.7 µM in [7]; 1.1 µM in assay [8]. For the same molecule, the Kd in assay [9] was found to be 24 µM.

B11: M103205H795-MY171 / M103202L889-SK1 (antibody, human IgG1, kappa)
heavy: B3 heavy with Q238N, D270E, K332A, P398F
light: B1 light
notes: as for B6
With B11, the “KD fold (SG1 = 1)” value turned out to be 1.4 fold in [1] and 3.8 fold in assay [2].

B12: M103205H795-MY262/M103202L889-SK1 (antibody, human IgG1, kappa)
heavy: B3 heavy with Q238V
light: B1 light
notes: copies: 2 + 2
On to B12, for which the Kd in assay [3] was 1.9 µM; in [4], 1.7 µM; in [5] it was 8 µM; in [6] it was 0.56 µM; in [7], 2.8 µM; in assay [8], 6 µM. For the same molecule, in assay [9], the Kd is 5 µM.
